Data from patent US20240400715A1 (VIBRANT PHARMA, published 2024).
Residue numbers refer to the chain shown, from its start.

B1: 111 (Knob+CEA-Hole-Fab) (bispecific antibody, human IgG4 S228P, kappa, F234A L235A)
chain: ESKYGPPCPPCPAPEAAGGPSVFLFPPKPKDTLMISRTPEVTCVVVDVSQEDPEVQFNWYVDGVEVHNAKTKPREEQFNSTYRVVSVLTVLHQDWLNGKEYKCKVSNKGLPSSIEKTISKAKGQPREPQVYTLPPCQEEMTKNQVSLWCLVKGFYPSDIAVEWESNGQPENNYKTTPPVLDSDGSFFLYSRLTVDKSRWQEGNVFSCSVMHEALHNHYTQKSLSLSL
heavy: EVQLVESGGGFVQAGESLTLSCTSSTLTFTPYRMAWYRQAPGKQRDLVADISSGDGRTTNYADFAKGRFTISRDNIKNTVFLRMTNLKPEDTAVYYCNTFVSFVGIARSWGQGTQVTVSSESKYGPPCPPCPAPEAAGGPSVFLFPPKPKDTLMISRTPEVTCVVVDVSQEDPEVQFNWYVDGVEVHNAKTKPREEQFNSTYRVVSVLTVLHQDWLNGKEYKCKVSNKGLPSSIEKTISKAKGQPREPQVCTLPPSQEEMTKNQVSLSCAVKGFYPSDIAVEWESNGQPENNYKTTPPVLDSDGSFFLVSRLTVDKSRWQEGNVFSCSVMHEALHNRFTQKSLSLSLGGGGSGGGGSEVKLLESGGGLVQPKGSLKLSCAASGFTFNTYAMNWVRQAPGKGLEWVARIRSKYNNYATYYADSVKDRFTISRDDSQSILYLQMNNLKTEDTAMYYCVRHGNFGNSYVSWFAYWGQGTLVTVSSASTKGPSVFPLAPCSRSTSESTAALGCLVKDYFPEPVTVSWNSGALTSGVHTFPAVLQSSGLYSLSSVVTVPSSSLGTKTYTCNVDHKPSNTKVDKRV
light: QAVVTQESALTTSPGETVTLTCRSSTGAVTTSNYANWVQEKPDHLFTGLIGGTNKRAPGVPARFSGSLIGDKAALTITGAQTEDEAIYFCALWYSNLWVFGGGTKVEIKRTVAAPSVFIFPPSDEQLKSGTASVVCLLNNFYPREAKVQWKVDNALQSGNSQESVTEQDSKDSTYSLSSTLTLSKADYEKHKVYACEVTHQGLSSPVTKSFNRGEC
notes: TA1 Fab, C17 VHH, IgG4 Fc KIH
B2: 112 (Knob-CEA+Hole-Fab) (bispecific antibody, human IgG4 S228P, kappa, F234A L235A)
chain: ESKYGPPCPPCPAPEAAGGPSVFLFPPKPKDTLMISRTPEVTCVVVDVSQEDPEVQFNWYVDGVEVHNAKTKPREEQFNSTYRVVSVLTVLHQDWLNGKEYKCKVSNKGLPSSIEKTISKAKGQPREPQVYTLPPCQEEMTKNQVSLWCLVKGFYPSDIAVEWESNGQPENNYKTTPPVLDSDGSFFLYSRLTVDKSRWQEGNVFSCSVMHEALHNHYTQKSLSLSLGGGGSGGGGSEVQLVESGGGFVQAGESLTLSCTSSTLTFTPYRMAWYRQAPGKQRDLVADISSGDGRTTNYADFAKGRFTISRDNIKNTVFLRMTNLKPEDTAVYYCNTFVSFVGIARSWGQGTQVTVSS
heavy: ESKYGPPCPPCPAPEAAGGPSVFLFPPKPKDTLMISRTPEVTCVVVDVSQEDPEVQFNWYVDGVEVHNAKTKPREEQFNSTYRVVSVLTVLHQDWLNGKEYKCKVSNKGLPSSIEKTISKAKGQPREPQVCTLPPSQEEMTKNQVSLSCAVKGFYPSDIAVEWESNGQPENNYKTTPPVLDSDGSFFLVSRLTVDKSRWQEGNVFSCSVMHEALHNRFTQKSLSLSLGGGGSGGGGSEVKLLESGGGLVQPKGSLKLSCAASGFTFNTYAMNWVRQAPGKGLEWVARIRSKYNNYATYYADSVKDRFTISRDDSQSILYLQMNNLKTEDTAMYYCVRHGNFGNSYVSWFAYWGQGTLVTVSSASTKGPSVFPLAPCSRSTSESTAALGCLVKDYFPEPVTVSWNSGALTSGVHTFPAVLQSSGLYSLSSVVTVPSSSLGTKTYTCNVDHKPSNTKVDKRV
light: B1 light
notes: TA1 Fab, C17 VHH, IgG4 Fc KIH
B3: 201 (CEA-Fab-Knob-+Hole) (bispecific antibody, human IgG4 S228P, kappa, F234A L235A)
heavy: EVKLLESGGGLVQPKGSLKLSCAASGFTFNTYAMNWVRQAPGKGLEWVARIRSKYNNYATYYADSVKDRFTISRDDSQSILYLQMNNLKTEDTAMYYCVRHGNFGNSYVSWFAYWGQGTLVTVSSASTKGPSVFPLAPCSRSTSESTAALGCLVKDYFPEPVTVSWNSGALTSGVHTFPAVLQSSGLYSLSSVVTVPSSSLGTKTYTCNVDHKPSNTKVDKRVESKYGPPCPPCPAPEAAGGPSVFLFPPKPKDTLMISRTPEVTCVVVDVSQEDPEVQFNWYVDGVEVHNAKTKPREEQFNSTYRVVSVLTVLHQDWLNGKEYKCKVSNKGLPSSIEKTISKAKGQPREPQVYTLPPCQEEMTKNQVSLWCLVKGFYPSDIAVEWESNGQPENNYKTTPPVLDSDGSFFLYSRLTVDKSRWQEGNVFSCSVMHEALHNHYTQKSLSLSL
chain: B1 chain with Y131C, C136S, W148S, L150A, Y189V, H217R, Y218F
light: QAVVTQESALTTSPGETVTLTCRSSTGAVTTSNYANWVQEKPDHLFTGLIGGTNKRAPGVPARFSGSLIGDKAALTITGAQTEDEAIYFCALWYSNLWVFGGGTKVEIKRTVAAPSVFIFPPSDEQLKSGTASVVCLLNNFYPREAKVQWKVDNALQSGNSQESVTEQDSKDSTYSLSSTLTLSKADYEKHKVYACEVTHQGLSSPVTKSFNRGECGGGGSGGGGSEVQLVESGGGFVQAGESLTLSCTSSTLTFTPYRMAWYRQAPGKQRDLVADISSGDGRTTNYADFAKGRFTISRDNIKNTVFLRMTNLKPEDTAVYYCNTFVSFVGIARSWGQGTQVTVSS
notes: VHH fused after CL of the light chain
B4: 202 (Knob+CEA-Fab-Hole) (bispecific antibody, human IgG4 S228P, kappa, F234A L235A)
chain: B1 chain
heavy: B3 heavy with Y354C, C359S, W371S, L373A, Y412V, H440R, Y441F
light: B3 light
notes: as for B3
B5: 204 (Knob+CEA-Fab-Hole) (bispecific antibody, human IgG4 S228P, kappa, F234A L235A)
chain: B1 chain
heavy: B3 heavy with Y354C, C359S, W371S, L373A, Y412V, H440R, Y441F
light: EVQLVESGGGFVQAGESLTLSCTSSTLTFTPYRMAWYRQAPGKQRDLVADISSGDGRTTNYADFAKGRFTISRDNIKNTVFLRMTNLKPEDTAVYYCNTFVSFVGIARSWGQGTQVTVSSGGGGSGGGGSQAVVTQESALTTSPGETVTLTCRSSTGAVTTSNYANWVQEKPDHLFTGLIGGTNKRAPGVPARFSGSLIGDKAALTITGAQTEDEAIYFCALWYSNLWVFGGGTKVEIKRTVAAPSVFIFPPSDEQLKSGTASVVCLLNNFYPREAKVQWKVDNALQSGNSQESVTEQDSKDSTYSLSSTLTLSKADYEKHKVYACEVTHQGLSSPVTKSFNRGEC
notes: VHH fused before VL of the light chain
B6: 203 (CEA-Fab-Knob-+Hole) (bispecific antibody, human IgG4 S228P, kappa, F234A L235A)
heavy: B3 heavy
chain: B1 chain with Y131C, C136S, W148S, L150A, Y189V, H217R, Y218F
light: B5 light
notes: as for B5

Each binder was assayed against T1, human CD3ε/δ (ACRO systems, CDD-H52W1) (human, UniProt P07766 23-126; P04234 22-105) (assay: serum-stability ELISA, Day 5 vs Day 0).
T1 construct: bought recombinant heterodimer; also called human CD3 epsilon/delta; Human CD3ε/CD3δ
Description: (§1) The samples to be tested were centrifuged at 4° C. at 12000 rpm for 30 minutes to remove the precipitate. 200 μl of each sample to be tested (0.5 mg/ml) was collected in a 1.5 ml Eppendorf tube. An equal volume of human serum (GEMINI, H2OYOOK) was added, mixed thoroughly, and the mixture was incubated in a 37° C. constant temperature CO₂ incubator. For a total of 10 days, 40 μl samples was aspirated every day and stored at −20° C.
(§2) Enzyme-linked immunosorbent assay (ELISA) was used to test the bispecific antibodies' binding to human CEA and human CD3 epsilon/delta antigen. The steps are as follows: the antigen human CD3ε/δ (ACRO systems, CDD-H52W1) and the recombinant tumor antigen human CEA (CEACAM-5/CD66e, ACRO systems, CE5-H5226) were diluted to 1 μg/ml with PBS, and then added to the 96-well plate at 100 μl per well. The wells were coated overnight at 4° C. After washing 3 times with 0.05% PBST, 200 μl 5% skimmed milk powder was added to each well and incubated at 37° C. for 2 h. After washing 3 times with 0.05% PBST, 100 μl primary antibody sample (10 μg/ml) was added to each well, and incubated at 37° C. for 2 h. After washing 3 times with 0.05% PBST, 100 μl (1:6000) diluted secondary antibody goat anti-human Fc-HRP (sigma, A2170) was added to each well, incubated at room temperature for 1 h. After washing 8 times with 0.05% PBST, 50 μl TMB color developing solution was added to each well, and incubated at room temperature for 10-15 min. 50 μl 1 mM HCl was added to each well to stop the color development. 450 nm Absorbance (OD) was read.
(§3) The binding of antibodies to antigen was calculated according to the following formula: Binding (%)=[(ODdayn−ODb)/(ODday0−ODb)]×100%. ODdayn: experimental well (the protein was stored in the serum for n days); ODday0: control well (the protein was not stored in the serum); ODb: blank well (no primary antibody added).
In the case of B1, the Binding % is reported as 103%.
B2 was tested, and the Binding % was 104%.

Molecular target: T1, human CD3ε/δ (ACRO systems, CDD-H52W1)
Assay: serum-stability ELISA, Day 5 vs Day 0
Remark: another data set of the same source
Description: as §1, §2, §3
With B3 the Binding % was 105%.
Work on B4 yielded a Binding % of 110%.
B5 showed a Binding % of 99.8%.
With B6 the Binding % was 102%.

Each binder was assayed against T1, human CD3ε/δ (ACRO systems, CDD-H52W1) (assay: serum-stability ELISA, Day 7 vs Day 0).
Description: as §1, §2, §3
Binder B1 has a Binding % of 106%.
Binder B2 has a Binding % of 104%.

The binders below were run against T1, human CD3ε/δ (ACRO systems, CDD-H52W1) (assay: serum-stability ELISA, Day 9 vs Day 0).
Description: as §1, §2, §3
Binder B1 has a Binding % of 96.5%.
Work on B2 yielded a Binding % of 102%.

What follows are binders tested against T1, human CD3ε/δ (ACRO systems, CDD-H52W1) (assay: serum-stability ELISA, Day 0 (reference)).
B3 gave a Binding % of 100%.
Binder B4 has a Binding % of 100%.
Binder B5 has a Binding % of 100%.
B6 was tested, and the Binding % was 100%.

The binders below were run against T1, human CD3ε/δ (ACRO systems, CDD-H52W1) (assay: serum-stability ELISA, Day 2 vs Day 0).
Description: as §1, §2, §3
B1 gave a Binding % of 99.3%.
B2 showed a Binding % of 102%.

These binders were tested against T1, human CD3ε/δ (ACRO systems, CDD-H52W1) (assay: serum-stability ELISA, Day 1 vs Day 0).
Description: as §1, §2, §3
Work on B1 yielded a Binding % of 93.2%.
B2 showed a Binding % of 99%.

These binders were tested against T1, human CD3ε/δ (ACRO systems, CDD-H52W1) (assay: serum-stability ELISA, Day 10 vs Day 0).
Description: as §1, §2, §3
Binder B1 has a Binding % of 78.2%.
With B2 the Binding % was 98.4%.

Molecular target: T1, human CD3ε/δ (ACRO systems, CDD-H52W1)
Assay: serum-stability ELISA, Day 10 vs Day 0
Remark: another data set of the same source
Description: as §1, §2, §3
B3 showed a Binding % of 98.8%.
Work on B4 yielded a Binding % of 99.1%.
For B5, the Binding % was 99.4%.
B6 showed a Binding % of 101%.

Molecular target: T1, human CD3ε/δ (ACRO systems, CDD-H52W1)
Assay: serum-stability ELISA, Day 1 vs Day 0
Remark: another data set of the same source
Description: as §1, §2, §3
Binder B3 has a Binding % of 104%.
In the case of B4, the Binding % is reported as 108%.
Binder B5 has a Binding % of 105%.
B6 gave a Binding % of 103%.

Molecular target: T1, human CD3ε/δ (ACRO systems, CDD-H52W1)
Assay: serum-stability ELISA, Day 0 (reference)
Remark: another data set of the same source
Description: as §1, §2, §3
In the case of B1, the Binding % is reported as 100%.
Work on B2 yielded a Binding % of 100%.

The binders below were run against T1, human CD3ε/δ (ACRO systems, CDD-H52W1) (assay: serum-stability ELISA, Day 6 vs Day 0).
Description: as §1, §2, §3
Work on B3 yielded a Binding % of 102%.
In the case of B4, the Binding % is reported as 108%.
B5 showed a Binding % of 103%.
B6 was tested, and the Binding % was 101%.

Molecular target: T1, human CD3ε/δ (ACRO systems, CDD-H52W1)
Assay: serum-stability ELISA, Day 2 vs Day 0
Remark: another data set of the same source
Description: as §1, §2, §3
Binder B3 has a Binding % of 76.3%.
In the case of B4, the Binding % is reported as 86.8%.
B5 was tested, and the Binding % was 102%.
B6 showed a Binding % of 85.3%.

Molecular target: T1, human CD3ε/δ (ACRO systems, CDD-H52W1)
Assay: serum-stability ELISA, Day 6 vs Day 0
Remark: another data set of the same source
Description: as §1, §2, §3
B1 showed a Binding % of 99.2%.
For B2, the Binding % was 110%.

Molecular target: T1, human CD3ε/δ (ACRO systems, CDD-H52W1)
Assay: serum-stability ELISA, Day 9 vs Day 0
Remark: another data set of the same source
Description: as §1, §2, §3
For B3, the Binding % was 101%.
In the case of B4, the Binding % is reported as 104%.
Work on B5 yielded a Binding % of 105%.
Binder B6 has a Binding % of 103%.

Molecular target: T1, human CD3ε/δ (ACRO systems, CDD-H52W1)
Assay: serum-stability ELISA, Day 7 vs Day 0
Remark: another data set of the same source
Description: as §1, §2, §3
B3 showed a Binding % of 104%.
For B4, the Binding % was 108%.
Work on B5 yielded a Binding % of 103%.
B6 gave a Binding % of 106%.
